Measured values reported in PMC11055898.
pKd: −log10 of the molar value.

Legend:
Assay in all cases: SPR
[1] = molecular target: human CD64 (FcgRI) (human) (UniProt P12314)
human FcRn = molecular target: human FcRn
mouse CD16-2 = molecular target: mouse CD16-2
mouse CD64 = molecular target: mouse CD64
[2] = molecular target: mouse neonatal Fc receptor (FcRn) (mouse) (UniProt Q61559)
Sequence of mouse neonatal Fc receptor (FcRn) (mouse) (Q61559 22-297): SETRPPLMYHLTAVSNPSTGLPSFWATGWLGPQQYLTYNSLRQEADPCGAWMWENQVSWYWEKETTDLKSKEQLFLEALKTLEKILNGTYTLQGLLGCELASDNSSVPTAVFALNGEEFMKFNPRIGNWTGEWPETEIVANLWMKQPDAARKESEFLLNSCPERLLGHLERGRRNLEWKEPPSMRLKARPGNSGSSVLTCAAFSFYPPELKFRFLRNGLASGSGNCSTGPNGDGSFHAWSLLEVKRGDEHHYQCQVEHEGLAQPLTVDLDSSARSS

Sequence of human CD64 (FcgRI) (human) (P12314 16-374): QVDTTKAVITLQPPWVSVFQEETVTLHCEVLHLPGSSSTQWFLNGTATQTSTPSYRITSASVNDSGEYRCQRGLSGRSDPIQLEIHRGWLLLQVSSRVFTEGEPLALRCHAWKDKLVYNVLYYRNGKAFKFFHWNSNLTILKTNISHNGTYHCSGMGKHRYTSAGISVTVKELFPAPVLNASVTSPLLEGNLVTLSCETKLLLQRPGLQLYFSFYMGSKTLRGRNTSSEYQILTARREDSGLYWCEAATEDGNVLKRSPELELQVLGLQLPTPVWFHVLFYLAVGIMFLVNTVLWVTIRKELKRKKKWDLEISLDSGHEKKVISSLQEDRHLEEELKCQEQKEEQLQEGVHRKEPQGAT
Sequence of human IgG3 (antibody specific for the receptor binding domain of SARS-CoV-2, clone not named) (P01860 whole entry, looked up, the tested form may be a part): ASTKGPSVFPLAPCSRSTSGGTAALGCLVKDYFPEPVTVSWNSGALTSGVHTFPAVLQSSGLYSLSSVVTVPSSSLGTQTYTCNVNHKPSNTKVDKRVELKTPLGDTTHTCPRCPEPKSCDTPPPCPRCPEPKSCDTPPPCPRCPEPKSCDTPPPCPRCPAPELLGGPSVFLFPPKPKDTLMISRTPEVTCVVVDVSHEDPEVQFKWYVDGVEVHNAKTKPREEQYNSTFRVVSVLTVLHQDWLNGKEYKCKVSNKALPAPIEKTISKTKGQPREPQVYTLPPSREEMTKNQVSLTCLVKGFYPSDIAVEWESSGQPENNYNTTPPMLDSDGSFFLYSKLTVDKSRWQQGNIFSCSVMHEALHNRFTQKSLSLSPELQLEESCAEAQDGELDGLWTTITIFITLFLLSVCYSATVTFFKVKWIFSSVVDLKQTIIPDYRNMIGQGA

Substance | pKd [1] | koff [1] [s⁻¹] | pKd (human FcRn) | koff (human FcRn) [s⁻¹] | pKd (mouse CD16-2) | koff (mouse CD16-2) [s⁻¹] | pKd (mouse CD64) | koff (mouse CD64) [s⁻¹] | pKd [2] | koff [2] [s⁻¹]
human IgG1 (antibody specific for the receptor binding domain of SARS-CoV-2, clone not named) (from UniProt P01857) | 8.62 | 0.00014 | 6.52 | 0.088 | 6.38 | 0.0275 | 6.61 | 0.062 | 8.00 | 0.001
human IgG3 (antibody specific for the receptor binding domain of SARS-CoV-2, clone not named) (from UniProt P01860) | 8.09 | 0.00033 | – | – | – | – | 7.85 | 0.0014 | – | –
